In PMC3017643 (Journal of molecular biology, 2010):
One block for each molecule: values may come before it.

How the values were obtained:
β-catenin 1-781 = β-catenin 1-781 (UniProt Q02248); experiment: isothermal titration calorimetry; settings: reference: non-phosphorylated Lef-1(1–63); sites S40
[1] = target: full-length β-catenin (residues 1–781) (murine) (UniProt Q02248); experiment: ITC
[2] = target: T1, full-length β-catenin (residues 1–781) (murine, UniProt Q02248 1-781); experiment: ITC
T1 sequence (looked up): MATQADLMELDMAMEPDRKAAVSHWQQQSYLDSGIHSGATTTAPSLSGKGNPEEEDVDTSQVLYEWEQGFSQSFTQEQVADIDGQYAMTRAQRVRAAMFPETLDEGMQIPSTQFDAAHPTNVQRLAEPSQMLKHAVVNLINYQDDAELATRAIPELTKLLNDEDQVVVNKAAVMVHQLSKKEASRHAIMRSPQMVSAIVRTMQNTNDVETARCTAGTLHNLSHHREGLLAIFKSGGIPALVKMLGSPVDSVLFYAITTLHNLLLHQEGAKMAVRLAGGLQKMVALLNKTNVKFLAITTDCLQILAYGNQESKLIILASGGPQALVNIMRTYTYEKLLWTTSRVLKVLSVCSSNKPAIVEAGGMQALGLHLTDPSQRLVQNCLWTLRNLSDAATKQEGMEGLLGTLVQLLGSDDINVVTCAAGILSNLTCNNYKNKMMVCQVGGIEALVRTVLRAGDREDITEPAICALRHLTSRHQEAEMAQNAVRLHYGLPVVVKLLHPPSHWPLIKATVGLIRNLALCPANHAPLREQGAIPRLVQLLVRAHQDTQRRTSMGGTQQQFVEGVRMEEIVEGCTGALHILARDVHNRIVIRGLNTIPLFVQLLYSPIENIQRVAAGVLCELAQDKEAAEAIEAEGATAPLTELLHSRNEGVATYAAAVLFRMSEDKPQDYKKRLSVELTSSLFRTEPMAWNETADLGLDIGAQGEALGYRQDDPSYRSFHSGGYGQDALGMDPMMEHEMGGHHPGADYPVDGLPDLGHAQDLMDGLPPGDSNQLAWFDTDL

KD (β-catenin 1-781): same; reference 23 (± 3) × 10−9
Molecule: Lef-1 1-63 (from UniProt P27782) CK2-phosphorylated, HPLC-purified pLef-1(1–63)

dH [1]: -13.1 kcal/mol
Molecule: murine Lef-1(1–63), non-phosphorylated, as used for ITC (from UniProt P27782 1-63) (domain or fragment)

Kd [1]: 35 nM | dH [1]: -12.3 kcal/mol
Molecule: CK2-phosphorylated murine Lef-1(1–63), HPLC-separated, as used for ITC (from UniProt P27782 1-63) (domain or fragment)

Kd [2]: 16 nM | dH [2]: -12.5 ± 0.1 kcal/mol
B1: human TCF4 β-catenin binding region, residues 1–57 (domain or fragment, UniProt Q9NQB0 1-57, looked up)
chain: MPQLNGGGGDDLGANDELISFKDEGEQEEKSSENSSAERDLADVKSSLVNESETNQN
